From US20200277392A1 (Hoffmann-La Roche, published 2020)
Positions count from the first letter of the chain named. In names and notes the source's numbering stands.

T1: human OX40 on cells (human, UniProt P43489 29-277)
T1 construct: also called CD134; OX40+ Cells
T1 sequence: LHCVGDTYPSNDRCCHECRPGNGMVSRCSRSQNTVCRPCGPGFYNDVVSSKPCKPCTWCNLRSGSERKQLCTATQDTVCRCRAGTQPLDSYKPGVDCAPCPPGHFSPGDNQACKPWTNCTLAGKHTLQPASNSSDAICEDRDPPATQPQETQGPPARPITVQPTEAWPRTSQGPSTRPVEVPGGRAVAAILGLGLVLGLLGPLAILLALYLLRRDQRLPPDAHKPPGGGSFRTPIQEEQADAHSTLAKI

T2: cynomolgus TnC with C-terminal Avi- and His-tags (cynomolgus, biotinylated at the C-terminal Avi-tag)
T2 construct: also called cynoTnC; cyno TnC
T2 chain: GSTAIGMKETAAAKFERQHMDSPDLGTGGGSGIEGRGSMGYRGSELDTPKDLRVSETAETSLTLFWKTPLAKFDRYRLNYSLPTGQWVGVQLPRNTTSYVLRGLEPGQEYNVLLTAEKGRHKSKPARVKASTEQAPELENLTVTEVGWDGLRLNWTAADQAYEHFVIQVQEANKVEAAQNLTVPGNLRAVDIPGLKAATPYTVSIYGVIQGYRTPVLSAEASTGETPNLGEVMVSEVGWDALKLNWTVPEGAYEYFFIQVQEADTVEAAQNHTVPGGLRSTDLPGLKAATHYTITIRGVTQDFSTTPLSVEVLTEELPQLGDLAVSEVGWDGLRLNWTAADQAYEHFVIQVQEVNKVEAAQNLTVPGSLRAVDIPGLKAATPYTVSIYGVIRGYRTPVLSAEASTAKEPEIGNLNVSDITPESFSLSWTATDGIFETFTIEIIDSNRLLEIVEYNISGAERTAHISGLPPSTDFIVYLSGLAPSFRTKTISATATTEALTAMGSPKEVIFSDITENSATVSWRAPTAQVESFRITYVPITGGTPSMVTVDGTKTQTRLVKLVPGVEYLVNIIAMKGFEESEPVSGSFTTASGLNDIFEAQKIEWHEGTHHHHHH

T3: mouse TnC with C-terminal Avi- and His-tags (mouse, biotinylated at the C-terminal Avi-tag)
T3 construct: the N-terminal fn5 and C-terminal fn6 parts look like the human ones; also called muTnC; murine TnC
T3 chain: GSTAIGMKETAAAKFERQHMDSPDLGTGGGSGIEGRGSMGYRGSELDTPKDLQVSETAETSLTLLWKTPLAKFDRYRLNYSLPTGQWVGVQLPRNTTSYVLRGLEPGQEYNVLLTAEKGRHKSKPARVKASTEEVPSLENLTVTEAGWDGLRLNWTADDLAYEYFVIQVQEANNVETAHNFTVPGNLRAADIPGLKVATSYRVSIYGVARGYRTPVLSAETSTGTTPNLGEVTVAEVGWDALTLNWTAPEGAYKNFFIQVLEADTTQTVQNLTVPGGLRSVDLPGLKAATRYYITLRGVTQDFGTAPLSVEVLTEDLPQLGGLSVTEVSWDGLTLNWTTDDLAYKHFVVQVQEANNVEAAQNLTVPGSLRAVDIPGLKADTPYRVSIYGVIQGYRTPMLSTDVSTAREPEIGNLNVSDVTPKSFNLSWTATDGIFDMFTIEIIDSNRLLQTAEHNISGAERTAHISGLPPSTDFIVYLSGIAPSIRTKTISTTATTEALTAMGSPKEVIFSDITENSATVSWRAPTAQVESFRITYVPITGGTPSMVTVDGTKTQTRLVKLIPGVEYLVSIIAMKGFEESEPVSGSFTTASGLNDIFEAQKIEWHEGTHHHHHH

B1: 49B4/TnC 18D4 P329GLALA 4 + 2 (ID8035) (bispecific antibody, human IgG1, kappa, L234A L235A)
heavy: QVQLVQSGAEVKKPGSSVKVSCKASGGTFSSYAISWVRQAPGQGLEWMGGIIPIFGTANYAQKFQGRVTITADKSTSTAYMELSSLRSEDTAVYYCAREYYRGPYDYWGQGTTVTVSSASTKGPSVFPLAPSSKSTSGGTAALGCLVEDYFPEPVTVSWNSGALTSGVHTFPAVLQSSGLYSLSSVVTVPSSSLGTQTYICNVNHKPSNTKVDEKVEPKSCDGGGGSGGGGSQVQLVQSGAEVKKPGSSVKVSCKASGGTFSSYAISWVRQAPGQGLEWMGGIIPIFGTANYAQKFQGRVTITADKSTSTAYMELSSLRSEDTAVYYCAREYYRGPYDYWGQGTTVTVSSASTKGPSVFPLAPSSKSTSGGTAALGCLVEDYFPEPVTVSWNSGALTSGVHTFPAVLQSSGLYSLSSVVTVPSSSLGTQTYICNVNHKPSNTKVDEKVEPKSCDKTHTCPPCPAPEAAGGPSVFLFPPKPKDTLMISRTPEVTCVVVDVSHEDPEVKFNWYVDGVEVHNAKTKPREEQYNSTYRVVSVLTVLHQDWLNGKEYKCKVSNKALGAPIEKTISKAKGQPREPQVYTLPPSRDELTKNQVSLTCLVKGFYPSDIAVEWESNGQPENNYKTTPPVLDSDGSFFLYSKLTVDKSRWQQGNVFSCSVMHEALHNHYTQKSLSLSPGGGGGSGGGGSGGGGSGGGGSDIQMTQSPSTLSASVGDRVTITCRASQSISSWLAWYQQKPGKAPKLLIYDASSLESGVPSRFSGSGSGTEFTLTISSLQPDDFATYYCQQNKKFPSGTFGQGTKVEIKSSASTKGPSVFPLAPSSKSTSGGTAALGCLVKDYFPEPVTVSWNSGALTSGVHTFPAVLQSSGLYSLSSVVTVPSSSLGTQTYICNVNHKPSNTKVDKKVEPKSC
light 1: DIQMTQSPSTLSASVGDRVTITCRASQSISSWLAWYQQKPGKAPKLLIYDASSLESGVPSRFSGSGSGTEFTLTISSLQPDDFATYYCQQYSSQPYTFGQGTKVEIKRTVAAPSVFIFPPSDRKLKSGTASVVCLLNNFYPREAKVQWKVDNALQSGNSQESVTEQDSKDSTYSLSSTLTLSKADYEKHKVYACEVTHQGLSSPVTKSFNRGEC
light 2: QVQLVQSGAEVKKPGSSVKVSCKASGGTFSSYAISWVRQAPGQGLEWMGGIIPIFGTANYAQKFQGRVTITADKSTSTAYMELSSLRSEDTAVYYCAKGNFYGGLDYWGQGTTVTVSSASVAAPSVFIFPPSDEQLKSGTASVVCLLNNFYPREAKVQWKVDNALQSGNSQESVTEQDSKDSTYSLSSTLTLSKADYEKHKVYACEVTHQGLSSPVTKSFNRGEC
notes: huIgG1 P329G LALA; also called 49B4/18D4 4 + 2; 4 + 2 TnC (18D4)
B2: 49B4/TnC 18D4 P329GLALA 2 + 2 (ID7216) (bispecific antibody, human IgG1, kappa, L234A L235A)
heavy: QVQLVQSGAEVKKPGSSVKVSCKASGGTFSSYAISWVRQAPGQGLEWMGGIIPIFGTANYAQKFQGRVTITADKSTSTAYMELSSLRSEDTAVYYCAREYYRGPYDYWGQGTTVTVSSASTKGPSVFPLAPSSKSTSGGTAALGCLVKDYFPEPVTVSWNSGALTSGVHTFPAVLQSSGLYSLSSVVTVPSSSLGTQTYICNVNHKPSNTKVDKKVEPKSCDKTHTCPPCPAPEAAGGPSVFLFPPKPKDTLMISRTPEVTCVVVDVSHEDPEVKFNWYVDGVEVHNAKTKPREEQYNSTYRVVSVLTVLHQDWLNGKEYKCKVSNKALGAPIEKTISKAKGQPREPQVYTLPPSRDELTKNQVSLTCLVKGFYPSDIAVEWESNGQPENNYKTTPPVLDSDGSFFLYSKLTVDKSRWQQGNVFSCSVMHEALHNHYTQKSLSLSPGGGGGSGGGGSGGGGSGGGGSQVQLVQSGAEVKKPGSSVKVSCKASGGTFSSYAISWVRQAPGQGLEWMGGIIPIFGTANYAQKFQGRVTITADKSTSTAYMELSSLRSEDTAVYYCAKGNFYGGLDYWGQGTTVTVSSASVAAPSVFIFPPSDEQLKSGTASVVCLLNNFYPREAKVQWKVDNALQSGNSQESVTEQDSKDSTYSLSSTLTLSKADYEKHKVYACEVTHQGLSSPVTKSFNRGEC
light 1: B1 light 1 with R123E, K124Q
light 2: DIQMTQSPSTLSASVGDRVTITCRASQSISSWLAWYQQKPGKAPKLLIYDASSLESGVPSRFSGSGSGTEFTLTISSLQPDDFATYYCQQNKKFPSGTFGQGTKVEIKSSASTKGPSVFPLAPSSKSTSGGTAALGCLVKDYFPEPVTVSWNSGALTSGVHTFPAVLQSSGLYSLSSVVTVPSSSLGTQTYICNVNHKPSNTKVDKKVEPKSCD
notes: huIgG1 P329G LALA; 49B4 VHCH1-Fc-(G4S)4-18D4 VHCL heavy chain, 49B4 VLCL light chain, 18D4 VLCH1 crossed light chain; also called 2 + 2 (49B4/18D4); 49B4/18D4 2 + 2
B3: 49B4/TnC 18D4 P329GLALA 4 + 1 (ID7745) (bispecific antibody, human IgG1, kappa, L234A L235A)
heavy 1: not shown
heavy 2: not shown
light: B1 light 1 with R123E, K124Q
B4: anti-OX40 clone 8H9, Fab (Fab, V domains shown)
VH: QVQLVQSGAEVKKPGSSVKVSCKASGGTFSSYAISWVRQAPGQGLEWMGGIIPIFGTANYAQKFQGRVTITADKSTSTAYMELSSLRSEDTAVYYCAREYGWMDYWGQGTTVTVSS
VL: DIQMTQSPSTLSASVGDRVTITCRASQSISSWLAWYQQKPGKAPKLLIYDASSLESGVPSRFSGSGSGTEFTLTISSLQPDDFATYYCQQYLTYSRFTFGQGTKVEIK
notes: Flag-tagged Fab in bacterial supernatant (phage library DP88-4); also called OX40(8H9)
B5: anti-OX40 clone 1G4, Fab (Fab, V domains shown)
VH: B4 VH with W102S
VL: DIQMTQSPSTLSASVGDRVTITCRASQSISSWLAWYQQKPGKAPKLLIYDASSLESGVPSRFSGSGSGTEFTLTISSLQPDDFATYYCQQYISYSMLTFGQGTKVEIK
notes: Flag-tagged Fab in bacterial supernatant (phage library DP88-4); also called OX40(1G4)
B6: anti-OX40 clone 20B7, Fab (Fab, V domains shown)
VH: QVQLVQSGAEVKKPGSSVKVSCKASGGTFSSYAISWVRQAPGQGLEWMGGIIPIFGTANYAQKFQGRVTITADKSTSTAYMELSSLRSEDTAVYYCARVNYPYSYWGDFDYWGQGTTVTVSS
VL: DIQMTQSPSTLSASVGDRVTITCRASQSISSWLAWYQQKPGKAPKLLIYDASSLESGVPSRFSGSGSGTEFTLTISSLQPDDFATYYCQQYQAFSLTFGQGTKVEIK
notes: Flag-tagged Fab in bacterial supernatant (phage library DP88-4); also called OX40(20B7)
B7: anti-OX40 clone 49B4, Fab (Fab, V domains shown)
VH: QVQLVQSGAEVKKPGSSVKVSCKASGGTFSSYAISWVRQAPGQGLEWMGGIIPIFGTANYAQKFQGRVTITADKSTSTAYMELSSLRSEDTAVYYCAREYYRGPYDYWGQGTTVTVSS
VL: B6 VL with Q92S, A93S, F94Q, S95P, L96Y
notes: Flag-tagged Fab in bacterial supernatant (phage library DP88-4); also called OX40(49B4)
B8: anti-OX40 clone 17A9, Fab (Fab, V domains shown)
VH: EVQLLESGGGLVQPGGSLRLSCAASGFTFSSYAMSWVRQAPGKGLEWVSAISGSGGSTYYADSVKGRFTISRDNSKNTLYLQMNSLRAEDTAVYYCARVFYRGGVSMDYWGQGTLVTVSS
VL: SSELTQDPAVSVALGQTVRITCQGDSLRSYYASWYQQKPGQAPVLVIYGKNNRPSGIPDRFSGSSSGNTASLTITGAQAEDEADYYCNSRVMPHNRVFGGGTKLTV
notes: Flag-tagged Fab in bacterial supernatant (phage library lambda-DP47); also called OX40(17A9)

Key:
[1] = molecular target: T4, human OX40 Fc(kih), monomeric Fc-linked human OX40 antigen ECD (human, UniProt P0DOX5 223-449 = IgG part); assay: SPR (Biacore T200, 25 °C): bispecific held on immobilised human TnC; human OX40 Fc(kih) at 250 nM injected for 90 s as analyte 2
T4 construct: Heterodimer of one OX40 ECD (aa 29-214)-AcTEV-Fc knob-Avi chain and one Fc hole chain; Biotinylated at the Avi tag for phage selection and ELISA; also called recombinant OX40 Fc (kih) receptor; biotinylated human OX40
Protocol: (§1) All SPR experiments were performed on a Biacore T200 at 25° C. with HBS-EP as running buffer (0.01 M HEPES pH 7.4, 0.15 M NaCl, 3 mM EDTA, 0.005% Surfactant P20, Biacore, Freiburg/Germany).
Biotinylated human TnC was directly coupled to a flow cell of a streptavidin (SA) sensor chip. Immobilization levels up to 1000 resonance units (RU) were used.
Bulk refractive index differences were corrected for by subtracting the response obtained in a reference flow cell, where no protein was immobilized.

[2] = molecular target: T1, human OX40 on cells; assay: flow cytometry on OX40+ cells (activated human PBMC)
Protocol: (§2) For labeling, cells were harvested, washed with pre-warmed (37° C.) DPBS and adjusted to a cell density of 1×10⁷ cells/mL in DPBS. eFluor670 cell proliferation dye (eBioscience, Cat.-No. 65-0840-85) was added to the suspension of naïve human PBMC at a final concentration of […] and a final cell density of 0.5×10⁷ cells/mL in DPBS. Cells were then incubated for 10 min at room temperature in the dark. To stop the labeling reaction, 4 mL heat inactivated FBS was added and cells were washed three times with T cell medium. A 2:1 mixture of 1×10⁵ resting eFluor670 labeled human PBMC and 0.5×10⁵ unlabeled activated human PBMC were then added to each well of round-bottomed suspension cell 96-well plates (Greiner bio-one, cellstar, Cat. No. 650185).
(§3) Cells were stained for 120 minutes at 4° C. in the dark in 50 μL/well 4° C. FACS buffer containing different amounts of the indicated antigen binding molecules. After three washes with 4° C. FACS buffer, cells were stained for 45 minutes at 4° C. in the dark in 25 μL/well 4° C. FACS buffer containing a mixture of fluorescently labeled anti-human CD4 (clone RPA-T4, mouse IgG1 k, BioLegend, Cat.-No. 300532), anti-human CD8 (clone RPa-T8, mouse IgGlk, BioLegend, Cat.-No. 3010441) and Fluorescein isothiocyanate (FITC)-conjugated AffiniPure anti-human IgG Fcγ-fragment-specific goat IgG F(ab′)₂ fragment (Jackson ImmunoResearch, Cat.-No. 109-096-098).
Cells were then resuspended in […] FACS-buffer containing 0.2 μg/mL DAPI (Santa Cruz Biotec, Cat. No. Sc-3598) and acquired the same day using 5-laser LSR-Fortessa (BD Bioscience with DIVA software).

[3] = molecular target: T1, human OX40 on cells; assay: flow cytometry on activated human PBMC, gated on CD8+ T cells; FITC anti-human IgG secondary; MFI baseline corrected
Protocol: as §2
as §3, with “109-096-098). […]” for “109-096-098).”

[4] = molecular target: T2, cynomolgus TnC with C-terminal Avi- and …; assay: SPR Biacore T200, biotinylated TnC on SA chip, bispecific as analyte, 1:1 fit, apparent KD (bivalent binding)
Protocol: as §1, with “The capacity of the bispecific constructs to bind human, murine and cynomolgus TnC was analysed by surface plasmon resonance (SPR). All” for “All”
(§4) Biotinylated human, murine or cynomolgus TnC molecules were immobilised on a SA chip to reach an immobilization level of 10 resonance units (RU).
(§5) Following immobilisation, the bispecific molecules or control molecules were immediately passed over the chip surface at concentrations ranging from 0.05-50 nM, at a flow rate of 30 μL/minute for 120 seconds and a dissociation phase of 180 seconds. The surface was regenerated using 10 mM glycine pH2.1. Bulk refractive index differences were corrected for by subtracting the response obtained in a reference flow cell, where no TnC was immobilized. Affinity/Avidity was determined under these experimental conditions using the Langmuir 1:1 curve fitting. For bivalent binding the same 1:1 fitting was used leading to an apparent KD value.

[5] = molecular target: T3, mouse TnC with C-terminal Avi- and …; assay: as above
Protocol: as §1, with “The capacity of the bispecific constructs to bind human, murine and cynomolgus TnC was analysed by surface plasmon resonance (SPR). All” for “All”
as §4, §5

[6] = molecular target: T4, human OX40 Fc(kih), monomeric Fc-linked …; assay: ELISA, Fab-containing bacterial supernatants on biotinylated human OX40 on neutravidin plates, anti-Flag/HRP detection
Protocol: Selections were carried out over 3 or 4 rounds using constant antigen concentrations of 100 nM. […] In rounds 2 and 4, in order to avoid enrichment of binders to neutravidin, capture of antigen: phage complexes was performed by addition of 5.4×10⁷ streptavidin-coated magnetic beads. […] Fab-containing bacterial supernatants were added and binding Fabs were detected via their Flag-tags using an anti-Flag/HRP secondary antibody. […] They were bacterially expressed in a 0.5 liter culture volume, affinity purified and further characterized by SPR-analysis using BioRad's ProteOn XPR36 biosensor.

Binder	binding result [1]	binding result [6]	other results
B1	binds		EC50 [2]: 80 pM; EC50 (read off the curve) [3]: ~100 pM; Kd [4]: 400 pM; Kd [5]: 650 pM
B2	binds		EC50 [2]: 6590 pM; Kd [4]: 280 pM; Kd [5]: 300 pM
B3	binds		
B4		binds	
B5		binds	
B6		binds	
B7		binds	
B8		binds	
